Results published in US20180312591A1 (ONCOSYNERGY, published 2018).
Numbering of substitutions follows the chain as printed. Blank lines part the entries; values can stand above or below the binder they belong to.

Molecular target: T1, human integrin β1 (human, UniProt P05556 21-798)
T1 construct: whole, on cells; the antibodies are described as anti-human integrin β1; also called CD29; ITGB1
Experiment: competition FACS on Jurkat cells; competitor murine OS2966 (0.1875 µg/ml)
Procedure: Binding of composite human antibody variants (from Table 2) was assessed in a competition FACS assay with the OS2966 murine chimeric antibody (murine OS2966 Fab sliced to human Fc). In brief, a dilution series (three-fold) of chimeric or humanized antibodies starting from 25.0 μg/ml was premixed with a constant concentration of murine OS2966 (0.1875 μg/ml) in FACS buffer (1% BSA in 1×PBS pH 7.4) before mixing with 3×10⁵ Jurkat cells. […] After incubating on ice for 45 min, cells were washed, resuspended in 300 μl FACS buffer and analyzed on a Beckton Dickinson FACScalibur™. The geometric mean fluorescence intensity was plotted against antibody concentration (FIGS. 20-24).

- relative IC50 (IC50 of test antibody / IC50 of chimeric antibody): 0.88 ratio to chimeric antibody
B1: composite human antibody variant H1 (antibody, V domains shown)
VH: EVQLVQSGAEVKKPGSSVKVSCKASGYTFTGYILSWVRQAPGQGLEWIGWVDPEYGSTDSAEKFKKRVTITADISTSTAYMELSSLRSEDTATYFCTRYYDGYYRRWFAYWGQGTLVTVSS
VL: DIQMTQSPSSLSASVGDRVTITCLASEGISNNLAWYQQKPGKAPKLLIYGAHSLHDGVPDRFSGSGSGTDYTLKISRVEAEDVGVYYCQQGYKYPITFGGGTKVEIK
notes: also called VH5VK3

- relative IC50 (IC50 of test antibody / IC50 of chimeric antibody): 2.7 ratio to chimeric antibody
B2: composite human antibody variant H3 (antibody, V domains shown)
VH: B1 VH with V68A
VL: B1 VL with Y71F
notes: also called VH4VK4

- relative IC50 (IC50 of test antibody / IC50 of chimeric antibody): 1.13 ratio to chimeric antibody
B3: composite human antibody variant H19 (antibody, V domains shown)
VH: B1 VH with A9P, V20I, R38K, V68A, I70L, S77N, M81I, E82Q
VL: B1 VL with Y36H, K45Q, R77G, V78M, E79Q, A80P, V83E
notes: also called VH1VK1

- relative IC50 (IC50 of test antibody / IC50 of chimeric antibody): 2.76 ratio to chimeric antibody
B4: composite human antibody variant H10 (antibody, V domains shown)
VH: B1 VH with V20I, V68A, I70L, M81I
VL: B1 VL with Y71F
notes: also called VH3VK4

- relative IC50 (IC50 of test antibody / IC50 of chimeric antibody): 1.24 ratio to chimeric antibody
B5: composite human antibody variant H6 (antibody, V domains shown)
VH: B1 VH
VL: B1 VL with Y36H, K45Q, R77G, V78M, E79Q, A80P, V83E
notes: also called VH5VK1

- relative IC50 (IC50 of test antibody / IC50 of chimeric antibody): 1.58 ratio to chimeric antibody
B6: composite human antibody variant H11 (antibody, V domains shown)
VH: B1 VH with V20I, V68A, I70L, M81I
VL: B1 VL
notes: also called VH3VK3

- relative IC50 (IC50 of test antibody / IC50 of chimeric antibody): 0.85 ratio to chimeric antibody
B7: composite human antibody variant H5 (antibody, V domains shown)
VH: B1 VH
VL: B1 VL with Y36H
notes: also called VH5VK2

- relative IC50 (IC50 of test antibody / IC50 of chimeric antibody): 0.97 ratio to chimeric antibody
B8: composite human antibody variant H2 (antibody, V domains shown)
VH: B1 VH with V20I, V68A, I70L, M81I
VL: B1 VL with Y36H, K45Q, R77G, V78M, E79Q, A80P, V83E
notes: also called VH3VK1

- relative IC50 (IC50 of test antibody / IC50 of chimeric antibody): 1.18 ratio to chimeric antibody
B9: composite human antibody variant H8 (antibody, V domains shown)
VH: B1 VH with V68A
VL: B1 VL with Y36H
notes: also called VH4VK2

- relative IC50 (IC50 of test antibody / IC50 of chimeric antibody): 2 ratio to chimeric antibody
B10: composite human antibody variant H13 (antibody, V domains shown)
VH: B1 VH with V20I, V68A, I70L, S77N, M81I
VL: B1 VL with Y71F
notes: also called VH2VK4

- relative IC50 (IC50 of test antibody / IC50 of chimeric antibody): 3.26 ratio to chimeric antibody
B11: composite human antibody variant H4 (antibody, V domains shown)
VH: B1 VH
VL: B1 VL with Y71F
notes: also called VH5VK4

- relative IC50 (IC50 of test antibody / IC50 of chimeric antibody): 1.32 ratio to chimeric antibody
B12: composite human antibody variant H15 (antibody, V domains shown)
VH: B1 VH with V20I, V68A, I70L, S77N, M81I
VL: B1 VL with Y36H
notes: also called VH2VK2
